To fix the notation:
B1: VH:VL chains; a variant is named by its letters at X, in order (parent)
chain 1: QVQLVQSGAEVKKPGASVKVSCKASGYTFTDYXMHWVRQAPGQGLEWMGXVNPNXXXTTYNQKFEGRVTMTTDTSTSTAYMELRSLRSDDTAVYYCARXNXLDXWGQGTTVTVSS
chain 2: DIQMTQSPSSLSASVGDRVTITCSVSSSVSSIYLHWYQQKPGKAPKLLIYSTSNLASGVPSRFSGSGSGTDFTLTISSLQPEDFATYYCQVYSGYPLTFGGGTKVEIK

Non-specific binding call data for 111 variants are collected here from the emibetuzumab library of Makowski et al. (2022).

The variants in this series derive from B1. The experiment in a line: yeast display scFab, FACS + sequencing. The method in brief:
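For the non-specific binding call, a heavy-chain CDR mutant scFab library on the yeast surface was FACS-sorted and samples from two replicates were deep sequenced. Cells were labelled with anti-Myc and either biotinylated ovalbumin (260 μg/mL in PBSB, 3 h, room temperature) or soluble membrane proteins (130 μg/mL, 20 min on ice), with gates on the top 25% and bottom 10% of binders. With membrane protein and ovalbumin samples pooled, a sequence in ≥3 of 4 positive samples and no negatives was scored positive, and the converse rule scored negatives.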
Consider FARGASGV, for which the non-specific binding call is listed as “binds”.

For the variant VATRGYLV, the non-specific binding call is reported as “binds”.

DATRSSWD: the non-specific binding call is reported as “no binding”.

With DARGGAGA, the non-specific binding call was “no binding”.

Consider VATGGYAV, for which the non-specific binding call is reported as “no binding”.

Regarding SEARSAAV, the non-specific binding call is on record as “no binding”.

As for SEARSFGV, the non-specific binding call is given as “no binding”.

Take SEARSDAA: the non-specific binding call is listed as “no binding”.

Regarding SEARSDAS, the non-specific binding call is on record as “no binding”.

SEARSDAV: the non-specific binding call was “no binding”.

SEARSDAD: the non-specific binding call is “no binding”.

On to YARRGSLD, for which the non-specific binding call is recorded as “binds”.

As for DARGGAVV, the non-specific binding call is “no binding”.

Turning to DARGGAVY, the non-specific binding call is on record as “no binding”.

YARGGDLD: the non-specific binding call is recorded as “no binding”.

Turning to FARKGSGA, the non-specific binding call is “binds”.

Turning to SEARSDLY, the non-specific binding call was “no binding”.

On to SEARSDLA, for which the non-specific binding call is “no binding”.

On to VATGDDGV, for which the non-specific binding call was “no binding”.

With DATGGAGD, the non-specific binding call is given as “no binding”.

As for YATEAFSD, the non-specific binding call is on record as “binds”.

Turning to SARKGDVA, the non-specific binding call is “no binding”.

Take VEEAAAGV: the non-specific binding call is on record as “no binding”.

Regarding DARGGSAD, the non-specific binding call was “no binding”.

On to VEAGDSLD, for which the non-specific binding call is “no binding”.

YEAGTAVA: the non-specific binding call is listed as “no binding”.

For the variant SEARSAVV, the non-specific binding call is given as “no binding”.

Turning to SEARSAVY, the non-specific binding call is on record as “no binding”.

With SEARSAVS, the non-specific binding call is recorded as “no binding”.

For the variant SEARSAVA, the non-specific binding call is on record as “no binding”.

Take DATGGALD: the non-specific binding call is recorded as “no binding”.

Turning to VARGGSVD, the non-specific binding call is “no binding”.

Regarding DARGGFGV, the non-specific binding call is “no binding”.

FARGGSAD: the non-specific binding call is reported as “no binding”.

In the case of SARGGYWY, the non-specific binding call is recorded as “binds”.

In the case of DEARNAGA, the non-specific binding call was “no binding”.

Turning to AATTDAGD, the non-specific binding call is recorded as “no binding”.

Turning to AATTSFVV, the non-specific binding call is listed as “no binding”.

As to VEEEAFAV, the non-specific binding call is reported as “no binding”.

Turning to DARRGSGD, the non-specific binding call is reported as “no binding”.

For the variant SEARSAGV, the non-specific binding call is given as “no binding”.

As to DATTDSVD, the non-specific binding call was “no binding”.

Turning to YATGDDVA, the non-specific binding call is on record as “no binding”.

Consider AATRNVGV, for which the non-specific binding call is reported as “binds”.

Take SEARNAGD: the non-specific binding call is “no binding”.

Regarding YARRGDGA, the non-specific binding call is reported as “binds”.

Consider AATTDDAV, for which the non-specific binding call was “no binding”.

In the case of YATEDSGF, the non-specific binding call was “no binding”.

As to DARGGDAA, the non-specific binding call is “no binding”.

DATGGYAV: the non-specific binding call is “no binding”.

Take DEEASSWA: the non-specific binding call is recorded as “no binding”.

For the variant VATGDFGV, the non-specific binding call was “no binding”.

YATAADAD: the non-specific binding call is listed as “no binding”.

As to VEEEDYSS, the non-specific binding call is reported as “binds”.

As to FATGSDGA, the non-specific binding call is reported as “no binding”.

As for DATGGASD, the non-specific binding call is “no binding”.

Take DEAGDAVV: the non-specific binding call is “no binding”.

For VEAGDAVA, the non-specific binding call is listed as “no binding”.

On to DARGGDGS, for which the non-specific binding call is listed as “no binding”.

With VEARNDWA chain 1 M81I, the non-specific binding call is on record as “binds”.

With FEAGDDGV, the non-specific binding call is “no binding”.

As to DEARSDGA, the non-specific binding call is reported as “no binding”.

With FARKSYGA, the non-specific binding call is on record as “binds”.

In the case of SARRGDWA, the non-specific binding call is “binds”.

With DEAKAAVD, the non-specific binding call is “binds”.

Take SEARSDVY: the non-specific binding call is “no binding”.

For the variant SEARSDVF, the non-specific binding call is “no binding”.

Consider SEARSDVD, for which the non-specific binding call is “no binding”.

For the variant SEARSDVV, the non-specific binding call was “no binding”.

For YARGTAVD, the non-specific binding call is listed as “binds”.

Turning to FARGGDAV, the non-specific binding call is listed as “no binding”.

On to SEARSSAS, for which the non-specific binding call is recorded as “no binding”.

Regarding SEARSSAD, the non-specific binding call was “no binding”.

Take FARGGYVA: the non-specific binding call is recorded as “binds”.

As for DEAGTAVA, the non-specific binding call is “no binding”.

As to DARGGAAV, the non-specific binding call is “no binding”.

For the variant AATGSAWA, the non-specific binding call is reported as “no binding”.

For the variant YATGDDGV, the non-specific binding call is “no binding”.

For DATGGAAA, the non-specific binding call is on record as “no binding”.

VEAGDAAA: the non-specific binding call was “no binding”.

Regarding VEAGDAAV, the non-specific binding call was “no binding”.

Consider FATTDSVD, for which the non-specific binding call is on record as “no binding”.

For VEEASSWA, the non-specific binding call is on record as “no binding”.

Turning to FATKGFGD, the non-specific binding call is “binds”.

In the case of DATGGDGA, the non-specific binding call is on record as “no binding”.

Consider DATGGDGY, for which the non-specific binding call is “no binding”.

For DATGGDGV, the non-specific binding call is reported as “no binding”.

With DATGGDGS, the non-specific binding call was “no binding”.

On to DARRGAGV, for which the non-specific binding call was “no binding”.

For the variant SEEASDGA, the non-specific binding call is recorded as “no binding”.

Regarding SEARSSSY, the non-specific binding call is given as “no binding”.

For the variant SEARSSSD, the non-specific binding call is given as “no binding”.

With SEARSSSF, the non-specific binding call is on record as “no binding”.

For SEARSSSA, the non-specific binding call is on record as “no binding”.

Take SEARSSSV: the non-specific binding call is listed as “no binding”.

As for VATGDDWV, the non-specific binding call is on record as “no binding”.

Take VEAGSDGV: the non-specific binding call is “no binding”.

Regarding FATRASGD, the non-specific binding call is reported as “binds”.

As for AATTDSGD, the non-specific binding call was “no binding”.

On to AATTDSGV, for which the non-specific binding call is on record as “no binding”.

SEARSYVV: the non-specific binding call is given as “no binding”.

As for DATGGDWA, the non-specific binding call is “no binding”.

Turning to YATKGAWA, the non-specific binding call is listed as “binds”.

As to YARTGFGA, the non-specific binding call was “binds”.

Turning to AEAGDAVV, the non-specific binding call is on record as “no binding”.

Consider VEAGDDSA, for which the non-specific binding call is on record as “no binding”.

Turning to DATGGDVF, the non-specific binding call is recorded as “no binding”.

DATGGDVA: the non-specific binding call is “no binding”.

In the case of DATGGDVD, the non-specific binding call was “no binding”.

Take DATGGDVY: the non-specific binding call is listed as “no binding”.

For the variant DATGGDVV, the non-specific binding call was “no binding”.
